Reference: patent US20260167724A1
Values joined by “and” are separate entries in the source; they are usually repeats but may differ in a detail not shown here. Equal entries are not always repeated.

Biological target: CD3 on the Jurkat cell
Experiment: cell-based or functional assay

Luciferase Amount, pH 6.0, at CHO-Axl concentration (ng/mL) 0.00000: 893 RLU and 937 RLU
Luciferase Amount, pH 6.0, at CHO-Axl concentration (ng/mL) 0.01000: 1230 RLU and 1330 RLU
Luciferase Amount, pH 6.0, at CHO-Axl concentration (ng/mL) 0.1000: 2310 RLU and 2000 RLU
Luciferase Amount, pH 6.0, at CHO-Axl concentration (ng/mL) 1.000: 10700 RLU and 10000 RLU
Luciferase Amount, pH 6.0, at CHO-Axl concentration (ng/mL) 10.00: 44900 RLU and 46700 RLU
Luciferase Amount, pH 6.0, at CHO-Axl concentration (ng/mL) 100.0: 77200 RLU and 83200 RLU
Luciferase Amount, pH 6.0, at CHO-Axl concentration (ng/mL) 1000.0: 96200 RLU and 90400 RLU
Luciferase Amount, pH 6.0, at CHO-Axl concentration (ng/mL) 10000.0: 100000 RLU and 102000 RLU
Luciferase Amount, pH 7.4, at CHO-Axl concentration (ng/mL) 0.00000: 2280 RLU and 2160 RLU
Luciferase Amount, pH 7.4, at CHO-Axl concentration (ng/mL) 0.01000: 2270 RLU and 2350 RLU
Luciferase Amount, pH 7.4, at CHO-Axl concentration (ng/mL) 0.1000: 3930 RLU and 3970 RLU
Luciferase Amount, pH 7.4, at CHO-Axl concentration (ng/mL) 1.000: 17700 RLU and 18400 RLU
Luciferase Amount, pH 7.4, at CHO-Axl concentration (ng/mL) 10.00: 51800 RLU and 57100 RLU
Luciferase Amount, pH 7.4, at CHO-Axl concentration (ng/mL) 100.0: 94100 RLU and 99200 RLU
Luciferase Amount, pH 7.4, at CHO-Axl concentration (ng/mL) 1000.0: 113000 RLU and 112000 RLU
Luciferase Amount, pH 7.4, at CHO-Axl concentration (ng/mL) 10000.0: 135000 RLU and 139000 RLU
B1: Axl-WT×CD3-WT (bispecific antibody, part only; not given: constant regions and linkers, not shown: a dimerising Fc or GST)
heavy: EVQLVQSGAEVKKPGATVKISCKVSGYSFTGHTMNWIRQPPGKGLEWIGLIKPSNGGTSYNQKFKGRVTISADKSISTAYLQWSSLKASDTAMYYCAHGHYESYFAMDYWGQGTSVTVSS
light (part 1 of 2), part: DIQMTQSPSSLSASVGDRVTITCKASQDVSSAVAWYQQKPGQAPRLLIYWASTRHTGVPSRFSGSGSGTEFTLTISSLQPDDFATYYCQEHFSTPLTFGQGTKVEIK
light (part 2 of 2), part: QAVVTQEPSLTVSPGGTVTLTCRSSTGAVTTSNYANWVQQKPGQAPRGLIGGTNKRAPWTPARFSGSLLGGKAALTITGAQAEDEADYYCALWYSNLWVFGGGTKLTVLGEVQLVESGGGLVQPGGSLRLSCAASGFTFNTYAMNWVRQAPGKGLEWVARIRSKYNNYATYYADSVKDRFTISRDDSKNSLYLQMNSLKTEDTAVYYCVRHGNFGNSYVSWFAYWGQGTLVTVSS
